Source: US20220096653A1, “CONJUGATE COMPRISING LIGAND AND CEACAM5 ANTIBODY FAB FRAGMENT” (ASTELLAS PHARMA INC., priority 2019, published 2022)
Like-named read-outs stand apart in the source and are kept apart here.

How the values were obtained:
[1] = molecular target: human cancer-specific MUC1 peptide (PTL 1) (human); assay: ELISA on immobilised human cancer-specific MUC1 peptide, 4-parameter fit, duplicate (Example 6-2)
[2] = molecular target: human cancer-specific MUC1 peptide; assay: ELISA binding activity of anti-human MUC1 antibody Fab^5 fragment conjugates (Example 6-1); settings: each conjugate run in duplicate; Table 52; read-out: EC50
human cancer-specific MUC1 peptide, sequence (as listed by the source): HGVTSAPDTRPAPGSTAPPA
Method: Each anti-human MUC1 antibody Fab^5 fragment conjugate prepared by the method of Example 5 was subjected to ELISA to evaluate the binding activity thereof to human cancer-specific MUC1. In the present test, 20×PBS/Tween 20 Buffer (Thermo Fisher Scientific Inc., 28352) diluted 20-fold with distilled water was used as a wash liquid. In addition, for bovine serum albumin (BSA) used in the present test, 30% Bovine Serum Albumin solution (Sigma-Aldrich, Inc., A9576-50ML) was added in an appropriate proportion for use. A human cancer-specific MUC1 peptide (PTL 1) at 0.5 μmol/L was added to a Nunc MaxiSorp White 384 plate (Nunc, 460372) at 30 μL per well, and the plate was incubated overnight at 4° C. for immobilization. The MUC1 peptide was removed by reverse centrifugation, and then blocking was carried out by adding a PBS/Tween 20 buffer containing 5.0% BSA. Thereafter, the blocking solution was removed by reverse centrifugation, a solution of each anti-human MUC1 antibody Fab^5 fragment conjugate (Ex-No. 104, 108, or 112) described above at about 10000 ng/mL was diluted in 14 steps by 3-fold dilution using a PBS/Tween 20 buffer containing 1.0% BSA, and 30 μL was added per well and incubated at room temperature for 60 minutes. The plate was washed 3 times with a PBS/Tween 20 buffer, and Horseradish Peroxidase-labeled goat anti-human IgK antibody (Southern Biotechnology Associates, Inc.) diluted 10000-fold using a PBS/Tween 20 buffer containing 5.0% BSA was added at 30 μL per well and incubated at room temperature for 30 minutes. The plate was washed 3 times with a PBS/Tween 20 buffer, and ECL Prime Western Blotting DETECTION Reagent (GE Healthcare, RPN2232) as a substrate was added at 30 μL per well. The substrate was incubated at room temperature for 15 minutes, and then a signal value thereof was measured using an Envision counter (PerkinElmer, Inc.).
The test for each antibody was carried out in duplicate, and the EC50 value was calculated using a 4-parameter logistic curve model.

[3] = set-up: species or system mice (BALB/c or BALB/c nu/nu); settings: mouse, in vivo
Method: (§1) A Gd-labeled conjugate of the conjugate containing a peptide linker produced in one of the above Examples was administered from the tail vein of mice (BALB/c or BALB/c nu/nu) so that the protein mass was 0.02 mg (100 μL) per animal. After about 24 hours, the mice were sacrificed and the kidneys were removed, and the amount of Gd in the kidneys was measured using ICP-MS. The present test was carried out in 3 cases in each group, the mean value of the 3 cases was calculated, and the amount of Gd contained per kidney after administration was shown as a percentage (% of dose/tissue) of the total amount of Gd administered.
Based on the amount of Gd contained in the kidneys of the control conjugate, the proportion of decrease in the amount of Gd contained in the kidneys of each of the conjugates having a peptide linker was determined.

[4] = set-up: species or system mice (BALB/c nu/nu); settings: mouse, in vivo
Method: A Gd-labeled conjugate of the conjugate containing a peptide linker produced in one of the above Examples was administered from the tail vein of the tumor-bearing mice so that the protein mass was 0.02 mg (100 μL) per animal. As the tumor-bearing mice used in the present Example, mice (BALB/c nu/nu) that were in a tumor-bearing state brought about by transplanting human breast cancer cell line MDA-MB-468 (ATCC(registered trademark); HTB-132) at 5.0×10^6 cells/mouse subcutaneously on the back before administration of the sample were used. 24 hours after administration of the sample, the mice were sacrificed, the kidneys and the tumor were removed, and the amounts of Gd in the kidneys and in the tumor were measured using ICP-MS. The present test was carried out in 3 cases in each group, and the mean value of the 3 cases was calculated. The amount of Gd contained per kidney after administration was shown as a percentage of the amount of Gd administered (% of dose/tissue), and the amount of Gd contained per g of tumor tissue was shown as a percentage of the total amount of Gd administered (% of dose/g).

[5] = set-up: species or system mice (BALB/c nu/nu); settings: mouse, in vivo; remark: listed apart in the source
Method: A Gd-labeled conjugate of the conjugate containing a peptide linker produced in one of the above Examples was administered from the tail vein of tumor-bearing mice so that the protein mass was 0.02 mg (100 μL) per animal. As the tumor-bearing mice used in the present Example, mice (BALB/c nu/nu) that were in a tumor-bearing state brought about by transplanting human colorectal cancer cell line LS174T cells (ATCC(registered trademark); CL-188) at 2.0 to 5.0×10^6 cells/mouse subcutaneously on the back before administration of the sample were used. 24 hours after administration of the sample, the mice were sacrificed, the kidneys and the tumor were removed, and the amounts of Gd in the kidneys and in the tumor were measured using ICP-MS. The present test was carried out in 3 cases in each group, and the mean value of the 3 cases was calculated. The amount of Gd contained per kidney after administration was shown as a percentage of the amount of Gd administered (% of dose/tissue), and the amount of Gd contained per g of tumor tissue was shown as a percentage of the total amount of Gd administered (% of dose/g).

[6] = mouse, in vivo
Method: as §1
(§2) Based on the percentage of the control conjugate (% of dose/tissue), the proportion of decrease in the amount of Gd contained in the kidneys of each of the conjugates having a peptide linker was determined and shown in Table 28.

[7] = mouse, in vivo; remark: listed apart in the source
Method: as §1

[8] = Kidney accumulation evaluation test of Gd-labeled conjugates, normal mice (Example 4-1); settings: for Proportion of decrease (amount of Gd contained in the kidneys): based on control conjugate Ex-No. 47, about 24 hours; for % of dose/tissue (amount of Gd contained per kidney): tail vein, 0.02 mg protein per animal, about 24 hours, ICP-MS, mean of 3 cases
Method: as §1, §2

[9] = set-up: species or system mice (BALB/c or BALB/c nu/nu); settings: mouse, in vivo; remark: listed apart in the source
Method: as §1

B1: Ex-No 105, conjugate of Fab^5 (structure given only as drawing CHEM-US-00163) (Fab, V domains shown)
VH: QVQLVQSGAEVKKPGASVKVSCKASGYTFTNYGLSWVRQAPGQGLEWMGENHPGSGIIYHNEKFRGRVTLTADRSTSTAYMELSSLRSEDTAVYYCARSSGTRGFDYWGQGTLVTVSS
VL: DVVMTQTPLSLSVTPGQPASISCRSSQSIVHSNGNTYLEWYLQKPGQSPQLLIYRVSNRFSGVPDRFSGSGSGTDFTLKISRVEAEDVGVYYCFQGSHGPWTFGQGTKLEIKR
modifications: labeling may sit on this chain; sites not stated; low molecular weight molecule (MW 1190) bound to the Fab, sites and chain not stated; 1-3 per Fab by MS; Gln 1 pyroglutamic acid as Fab^5 is defined in paragraph 370
[1]
  EC50: 0.11 nM

B2: Ex-No 111, conjugate of Fab^5 (structure given only as drawing CHEM-US-00168) (Fab, V domains shown)
VH: B1 VH
VL: B1 VL
modifications: labeling may sit on this chain; sites not stated; low molecular weight molecule (MW 1391) bound to the Fab, sites and chain not stated; 1-2 per Fab by MS; Gln 1 pyroglutamic acid as Fab^5 is defined in paragraph 370
[1]
  EC50: 0.16 nM

B3: Ex-No 110, conjugate of Fab^5 (structure given only as drawing CHEM-US-00167) (Fab, V domains shown)
VH: B1 VH
VL: B1 VL
modifications: labeling may sit on this chain; sites not stated; low molecular weight molecule (MW 1201) bound to the Fab, sites and chain not stated; 1-2 per Fab by MS; Gln 1 pyroglutamic acid as Fab^5 is defined in paragraph 370
[1]
  EC50: 0.19 nM

B4: [Gd/DOTA-NH-CH2-(1,4-Ph)-NH-C(═O)-Met-Ile-NH-(CH2)2-Z1(#S)]p-Fab^5 (Fab, V domains shown)
VH: B1 VH
VL: B1 VL
modifications: labeling may sit on this chain; sites not stated; labeling portion (MW 1175) bound via 2-iminothiolane-treated amino groups of the Fab, sites and chain not stated; 1-3 per Fab by MS; Gln 1 pyroglutamic acid as Fab^5 is defined in paragraph 370
[1]
  EC50: 0.09 nM

B5: Ex-No 106, conjugate of Fab^5 (structure given only as drawing CHEM-US-00164) (Fab, V domains shown)
VH: B1 VH
VL: B1 VL
modifications: labeling may sit on this chain; sites not stated; low molecular weight molecule (MW 1380) bound to the Fab, sites and chain not stated; 1-3 per Fab by MS; Gln 1 pyroglutamic acid as Fab^5 is defined in paragraph 370
[1]
  EC50: 0.1 nM

B6: Ex-No 109, conjugate of Fab^5 (structure given only as drawing CHEM-US-00166) (Fab, V domains shown)
VH: B1 VH
VL: B1 VL
modifications: labeling may sit on this chain; sites not stated; low molecular weight molecule (MW 1216) bound to the Fab, sites and chain not stated; 1-2 per Fab by MS; Gln 1 pyroglutamic acid as Fab^5 is defined in paragraph 370
[1]
  EC50: 0.08 nM

B7: [Gd/DOTA-[2,5-(1,2,3,4-tetrahydroisoquinoline)]-C(═O)-Met-Gly-Lys*-C(═S)-NH-(1,4-Ph)-NH-C(═S)]p-Fab^5 (Fab, V domains shown)
VH: B1 VH
VL: B1 VL
modifications: labeling may sit on this chain; sites not stated; labeling portion (MW 1228) on amino groups of the Fab, sites and chain not stated; 1-2 per Fab by MS; Gln 1 pyroglutamic acid as Fab^5 is defined in paragraph 370
[1]
  EC50: 0.19 nM

B8: [Gd/DOTA-NH—CH2-(1,4-Ph)-NH—C(═O)-Met-Ile-NH—(CH2)2-(A-4 and/or A-5)]p-Fab^5 (conjugate)
heavy: QVQLVQSGAEVKKPGASVKVSCKASGYTFTNYGLSWVRQAPGQGLEWMGENHPGSGIIYHNEKFRGRVTLTADRSTSTAYMELSSLRSEDTAVYYCARSSGTRGFDYWGQGTLVTVSSASTKGPSVFPLAPSSKSTSGGTAALGCLVKDYFPEPVTVSWNSGALTSGVHTFPAVLQSSGLYSLSSVVTVPSSSLGTQTYICNVNHKPSNTKVDKKVEPKSCD
light: DVVMTQTPLSLSVTPGQPASISCRSSQSIVHSNGNTYLEWYLQKPGQSPQLLIYRVSNRFSGVPDRFSGSGSGTDFTLKISRVEAEDVGVYYCFQGSHGPWTFGQGTKLEIKRTVAAPSVFIFPPSDEQLKSGTASVVCLLNNFYPREAKVQWKVDNALQSGNSQESVTEQDSKDSTYSLSSTLTLSKADYEKHKVYACEVTHQGLSSPVTKSFNRGEC
modifications: non-natural residues
[2]
  EC50: 0.08 nM
[3]
  Renal residual amount (normal mice) % of dose/tissue: 2.30 % of dose/tissue
  Renal residual amount (normal mice) Proportion of decrease: 93.03%
[4]
  Renal residual amount (tumor-bearing mice) % of dose/tissue: 3.17 % of dose/tissue
  Renal residual amount (tumor-bearing mice) Proportion of decrease: 90.87%

B9: [Gd/DOTA-NH—(CH2CH2O)3—CH2—C(═O)—NH—CH2-(1,3-Ph)-C(═O)-Met-Gly-Lys*-Z2(#N)]p-Fab^2 (conjugate)
heavy: EVQLVESGGGLVQPGGSLRLSCAASGFNIRDTYMHWVRQAPGKGLEWVARIDPANGNSRYVPKFQGRFTISADTSRNTAYLQMNSLRAEDTAVYYCAPFGYYVSDYAMAYWGQGTLVTVSSASTKGPSVFPLAPSSKSTSGGTAALGCLVKDYFPEPVTVSWNSGALTSGVHTFPAVLQSSGLYSLSSVVTVPSSSLGTQTYICNVNHKPSNTKVDKKVEPKSCD
light: DIQLTQSPSSLSASVGDRVTITCRAGESVDIFGVGFLHWYQQKPGKAPKLLIYRASNLESGIPSRFSGSGSRTDFTLTISSLQPEDFATYYCQQTNEDPYTFGQGTKVEIKRTVAAPSVFIFPPSDEQLKSGTASVVCLLNNFYPREAKVQWKVDNALQSGNSQESVTEQDSKDSTYSLSSTLTLSKADYEKHKVYACEVTHQGLSSPVTKSFNRGEC
[5]
  Renal residual amount (tumor-bearing mice) % of dose/tissue: 8.40 % of dose/tissue
  Renal residual amount (tumor-bearing mice) Proportion of decrease: 67.48%
[6]
  % of dose/tissue (amount of Gd contained per kidney): 6.8 % of dose/tissue
  Proportion of decrease (amount of Gd contained in the kidneys): 78.0%

B10: [Gd/DOTA-NH—CH2-(1,3-Ph)-C(═O)-Met-Gly-Lys*-Z2(#S)]p-Fab^2 (conjugate)
heavy: B9 heavy
light: B9 light
[5]
  Renal residual amount (tumor-bearing mice) % of dose/tissue: 12.33 % of dose/tissue
  Renal residual amount (tumor-bearing mice) Proportion of decrease: 52.26%
[6]
  % of dose/tissue (amount of Gd contained per kidney): 12.9 % of dose/tissue
  Proportion of decrease (amount of Gd contained in the kidneys): 58.3%

B11: [Gd/DOTA-NH—CH2-(1,4-Ph)-NH—C(═O)-Met-Ile-NH—(CH2)2-(A-3)]p-Fab^2 (conjugate)
heavy: B9 heavy
light: B9 light
[7]
  Renal residual amount (normal mice) % of dose/tissue: 1.43 % of dose/tissue
  Renal residual amount (normal mice) Proportion of decrease: 95.38%

B12: [Gd/DOTA-NH—(CH2CH2O)3—CH2—C(═O)—NH—CH2-(1,3-Ph)-C(═O)-Met-Gly-Lys*-Z2(#S)]p-Fab^2 (conjugate)
heavy: B9 heavy
light: B9 light
[5]
  Renal residual amount (tumor-bearing mice) % of dose/tissue: 9.40 % of dose/tissue
  Renal residual amount (tumor-bearing mice) Proportion of decrease: 63.61%
[6]
  % of dose/tissue (amount of Gd contained per kidney): 7.0 % of dose/tissue
  Proportion of decrease (amount of Gd contained in the kidneys): 77.4%

B13: [Gd/4arm-DOTA-CH2-(1,4-Ph)-NH—C(═S)—NH—CH2-(1,3-Ph)-C(═O)-Met-Gly-Lys*-Z2(#S)]p-Fab^2 (conjugate)
heavy: B9 heavy
light: B9 light
[8]
  Proportion of decrease (amount of Gd contained in the kidneys): 72.9%
  % of dose/tissue (amount of Gd contained per kidney): 8.4 % of dose/tissue

B14: [Gd/DOTA-NH—CH2-(1,4-Ph)-NH—C(═O)-Met-Ile-NH—(CH2)2—Z1(#N)]p-Fab^2 (conjugate)
heavy: B9 heavy
light: B9 light
[5]
  Renal residual amount (tumor-bearing mice) % of dose/tissue: 5.77 % of dose/tissue
  Renal residual amount (tumor-bearing mice) Proportion of decrease: 77.68%
[9]
  Renal residual amount (normal mice) % of dose/tissue: 2.60 % of dose/tissue
  Renal residual amount (normal mice) Proportion of decrease: 91.13%

B15: Ex-No 10: (Y—S1—X)p-Fab^2: Y Gd/DOTA; S1 bond; X -Met-Ile-Lys*-Z2(#N)— (conjugate)
heavy: B9 heavy
light: B9 light
[9]
  Renal residual amount (normal mice) % of dose/tissue: 20.10 % of dose/tissue
  Renal residual amount (normal mice) Proportion of decrease: 31.46%

B16: [Gd/DOTA-NH—CH2-(1,4-Ph)-NH—C(═O)-Met-Ile-NH—(CH2)2-(A-4 and/or A-5)]p-Fab^2 (conjugate)
heavy: B9 heavy
light: B9 light
[7]
  Renal residual amount (normal mice) % of dose/tissue: 2.43 % of dose/tissue
  Renal residual amount (normal mice) Proportion of decrease: 92.15%

B17: [Gd/DOTA]p-Fab^2 (conjugate)
heavy: B9 heavy
light: B9 light
[5]
  Renal residual amount (tumor-bearing mice) Mean: 25.83 % of dose/tissue
[7]
  Renal residual amount (normal mice) % of dose/tissue: 31.33 % of dose/tissue
[9]
  Renal residual amount (normal mice) Mean: 29.33 % of dose/tissue

B18: [Gd/4arm-DOTA-CH2-(1,4-Ph)-NH—C(═S)-Gly-Phe-Lys*-Z2(#N)]p-Fab^2 (conjugate)
heavy: B9 heavy
light: B9 light
[8]
  Proportion of decrease (amount of Gd contained in the kidneys): 68.0%
  % of dose/tissue (amount of Gd contained per kidney): 9.9 % of dose/tissue
